Measured values: patent publication US20200330514A1 (TORQUE THERAPEUTICS, published 2020)

T1: human CD45 receptor on the surface of human T cells (human, UniProt P08575 26-1306)
T1 construct: whole, on cells; also called cellular CD45; leukocyte common antigen
T1 sequence (looked up): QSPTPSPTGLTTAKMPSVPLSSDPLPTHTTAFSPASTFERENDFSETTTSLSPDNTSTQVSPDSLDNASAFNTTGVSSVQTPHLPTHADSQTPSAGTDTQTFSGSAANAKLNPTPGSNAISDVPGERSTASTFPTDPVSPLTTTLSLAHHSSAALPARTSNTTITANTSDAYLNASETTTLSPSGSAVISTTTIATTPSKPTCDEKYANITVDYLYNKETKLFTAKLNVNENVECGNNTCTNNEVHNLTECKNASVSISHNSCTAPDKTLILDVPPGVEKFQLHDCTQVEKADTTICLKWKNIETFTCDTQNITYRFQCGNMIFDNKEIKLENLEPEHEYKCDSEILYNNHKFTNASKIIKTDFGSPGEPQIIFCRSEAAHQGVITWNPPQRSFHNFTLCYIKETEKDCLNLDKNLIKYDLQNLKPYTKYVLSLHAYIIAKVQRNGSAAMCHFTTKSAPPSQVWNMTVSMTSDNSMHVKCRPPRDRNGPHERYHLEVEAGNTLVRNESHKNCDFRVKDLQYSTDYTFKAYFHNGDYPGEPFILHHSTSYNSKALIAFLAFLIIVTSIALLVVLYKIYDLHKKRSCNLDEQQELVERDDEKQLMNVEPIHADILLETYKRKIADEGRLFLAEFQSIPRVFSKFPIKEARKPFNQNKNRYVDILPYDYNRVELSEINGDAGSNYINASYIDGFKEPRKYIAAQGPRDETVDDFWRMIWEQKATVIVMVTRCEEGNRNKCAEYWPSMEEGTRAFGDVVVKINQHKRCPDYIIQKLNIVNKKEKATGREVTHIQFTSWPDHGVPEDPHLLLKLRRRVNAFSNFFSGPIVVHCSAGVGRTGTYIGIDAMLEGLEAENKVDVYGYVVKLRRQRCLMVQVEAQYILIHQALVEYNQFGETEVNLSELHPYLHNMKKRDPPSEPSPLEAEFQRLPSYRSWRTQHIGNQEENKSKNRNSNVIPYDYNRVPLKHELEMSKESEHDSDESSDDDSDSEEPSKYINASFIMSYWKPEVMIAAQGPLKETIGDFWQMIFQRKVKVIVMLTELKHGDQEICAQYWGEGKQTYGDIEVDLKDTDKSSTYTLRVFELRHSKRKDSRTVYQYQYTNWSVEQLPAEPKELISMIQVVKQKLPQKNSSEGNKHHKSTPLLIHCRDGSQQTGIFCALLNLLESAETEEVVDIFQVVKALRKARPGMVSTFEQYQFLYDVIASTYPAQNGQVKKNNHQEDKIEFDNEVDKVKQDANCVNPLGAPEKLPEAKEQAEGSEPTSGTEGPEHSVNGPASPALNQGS

B1: chBC8 chimeric IgG anti-CD45 antibody (IgG4-S228P) (antibody, V domains shown)
VH: QVQLVESGGGLVQPGGSLKLSCAASGFDFSRYWMSWVRQAPGKGLEWIGEINPTSSTINFTPSLKDKVFISRDNAKNTLYLQMSKVRSEDTALYYCARGNYYRYGDAMDYWGQGTSVTVSS
VL: DIVLTQSPASLAVSLGQRATISCRASKSVSTSGYSYLHWYQQKPGQPPKLLIYLASNLESGVPARFSGSGSGTDFTLNIHPVEEEDAATYYCQHSRELPFTFGSGTKLEIKR
notes: also called chBC8 IgG; chimeric BC8
B2: ch4B2 chimeric IgG anti-CD45 antibody (antibody, V domains shown)
VH: QVQLQQSGAELARPGASVKMSCKASGYTFTSYTMQWVKQRPGQGLEWIGYINPSSGYIKYNQKFKDKVTLTADKSSTTAYMQLSRLTSEDSAVYYCARRGSYFFDFWGQGTSVTVSS
VL: DIVITQDELSNPVTSGESVSISCRSSKSLLYKDGKTYLNWFLQRPGQSPQLLIYLMSTRASGVSDRFSGSGSGTDFTLEISRVKAEDVGVYYCQQLVEYPFTFGGGTKLEVK
notes: Chimeric IgG: mouse variable domains, human constant kappa domain and human IgG4 with S228P
B3: human CD8 on the surface of human CD8 T cells (receptor)
chain 1: not shown
chain 2: LQQTPAYIKVQTNKMVMLSCEAKISLSNMRIYWLRQRQAPSSDSHHEFLALWDSAKGTIHGEEVEQEKIAVFRDASRFILNLTSVKPEDSGIYFCMIVGSPELTFGKGTQLSVVDFLPTTAQPTKKSTLKKRVCRLPRPETQKGPLCSPITLGLLVAGVLVLLVSLGVAIHLCCRRRRARLRFMKQFYK
notes: whole, on cells
B4: chOKT8Fab (anti-human CD8 clone OKT8 as Fab fragment) (Fab, V domains shown)
VH: QVQLQQSGAELVKPGASVKLSCTASGFNIKDTYIHFVRQRPEQGLEWIGRIDPANDNTLYASKFQGKATITADTSSNTAYMHLSSLTSGDTAVYYCGRGYGYYVFDHWGQGTTLTVSS
VL: DVQINQSPSFLAASPGETITINCRTSRSISQYLAWYQEKPGKTNKLLIYSGSTLQSGIPSRFSGSGSGTDFTLTISGLEPEDFAMYYCQQHNENPLTFGAGTKLELKR
B5: ch9.4 chimeric IgG anti-CD45 antibody (antibody, V domains shown)
VH: QVQLQQLGAELARPGASVKMSCKASGYTFTSYSIQWVKQRPGQGLEWIGYINPSSGYIKYNQHFRDRATLTADRSSSTAYMQLSSLTSEDSAVYYCARGNSGSFDYWGQGTTLTVSS
VL: DIVMTQAAPSVPVTPGESLSISCRSSKSLLHSSGITYLYWFLQRPGQSPQLLIYRMSNLASGVPDRFSGSGSGTAFTLRISRVEAEDVGVYYCMQHLEYPFTFGGGTKLEIK
notes: as for B2
B6: hBC8(23) humanized BC8 anti-CD45 antibody (IgG form) (antibody, V domains shown)
VH: EVQLVESGGGLVQPGGSLRLSCAASGFDFSRYWMSWVRQAPGKGLEWIGEINPTSSTINFADSVKGRFTISRDNAKNSLYLQMNSVRDEDTAVYYCARGNYYRYGDAMDYWGQGTLVTVSS
VL: EIVLTQSPATLSLSLGERATISCRASKSVSTSGYSYLHWYQQKPGQAPKLLIYLASNRATGVPARFSGSGPGTDFTLTISSLEPEDFATYYCQHSRELPFTFGQGTKLEIK
notes: Tested as an antibody detected with anti-human IgG-Fc; its constant regions are not spelled out for the humanized antibody
B7: h9.4Fab-scIL-12p70 (other)
heavy: EVQLVQSGAEVKKPGASVKVSCKASGYTFTSYSIQWVRQAPGQRLEWIGYINPSSGYIKYNQHFRGRATLTADRSASTAYMELSSLRSEDTAVYYCARGNSGSFDYWGQGTLVTVSSASTKGPSVFPLAPSSKSTSGGTAALGCLVKDYFPEPVTVSWNSGALTSGVHTFPAVLQSSGLYSLSSVVTVPSSSLGTQTYICNVNHKPSNTKVDKKVEPKSC
light: DIVMTQSPLSLPVTPGEPASISCRSSQSLLHSSGITYLYWFLQKPGQSPQLLIYRMSNLASGVPDRFSGSGSGTDFTLKISRVEAEDVGVYYCMQHLEYPFTFGQGTKLEIKRTVAAPSVFIFPPSDEQLKSGTASVVCLLNNFYPREAKVQWKVDNALQSGNSQESVTEQDSKDSTYSLSSTLTLSKADYEKHKVYACEVTHQGLSSPVTKSFNRGECGGGGSGGGGSGGGGSIWELKKDVYVVELDWYPDAPGEMVVLTCDTPEEDGITWTLDQSSEVLGSGKTLTIQVKEFGDAGQYTCHKGGEVLSHSLLLLHKKEDGIWSTDILKDQKEPKNKTFLRCEAKNYSGRFTCWWLTTISTDLTFSVKSSRGSSDPQGVTCGAATLSAERVRGDNKEYEYSVECQEDSACPAAEESLPIEVMVDAVHKLKYENYTSSFFIRDIIKPDPPKNLQLKPLKNSRQVEVSWEYPDTWSTPHSYFSLTFCVQVQGKSKREKKDRVFTDKTSATVICRKNASISVRAQDRYYSSSWSEWASVPCSGGGSGGGSGGGSGGGSRNLPVATPDPGMFPCLHHSQNLLRAVSNMLQKARQTLEFYPCTSEEIDHEDITKDKTSTVEACLPLELTKNESCLNSRETSFITNGSCLASRKTSFMMALCLSSIYEDLKMYQVEFKTMNAKLLMDPKRQIFLDQNMLAVIDELMQALNFNSETVPQKSSLEEPDFYKTKIKLCILLHAFRIRAVTIDRVMSYLNAS
notes: Anti-human CD45 Fab fused to single-chain human IL-12p70; also called anti-CD45-IL12-TF; IL12-TF

Legend:
[1] = target: T1, human CD45 receptor on the surface of …; assay: apparent KD (KD,app); flow cytometry titration of IgG on activated primary human CD8 T cells, 4-parameter fit
Excerpt: For comparison with previous results we evaluated these antibodies alongside chBC8, hBC8(23), and a non-binding variant hBC8-null. The humanized BC8 antibody consists of variable domains containing CDR regions grafted from BC8, and the hBC8-null variant contains an SGGGS substitution in the heavy-chain CDR3, which ablates binding to CD45 (FIG. 10A). […] We use the term apparent dissociation constant (K_{D,app}) to distinguish from a true equilibrium dissociation constant: the bivalent nature of the IgG antibody introduces an avidity effect that complicates the calculation of a true equilibrium dissociation constant for these type of assays. Nevertheless, the K_{D,app} is a useful metric for scoring relative affinities of the antibodies to the cellular receptor in its native context.
Cell binding assay. Primary human CD8 T-cells were activated with CD3/CD28 beads and 10 ng/mL IL-2 as described in Example 1. Following activation and an overnight rest in full RPMI media (see Example 1 methods) the T-cells were incubated with seven serial five-fold dilutions of antibodies spanning 500 nM to 6.4 μM, or with media only control at 4° C. for 1 hr. Cells were washed with MACS buffer (PBS, 2% FBS, 1 mM EDTA) three times, and antibody binding was detected using a PE-conjugated anti-human IgG-Fc antibody (BioLegend, cat. no. HP6017) for 20 min. at 4° C. Cells were washed two times with MACS buffer, and the resuspended in MACS buffer with live-dead stain (7-AAD). Antibody binding was quantified using the median fluorescence intensity (MFI) of the live cell population (via 7-AAD exclusion) within the PE signal. Curves were generated by plotting mean fluorescent units against antibody concentration, and apparent dissociation constants (K_{D,app}) were determined by non-linear regression using a four-parameter logistic equation using GraphPad Prism (GraphPad Software, Inc.).

chOKT8-IL15/sushi Fab = target: T2, chOKT8-IL15/sushi Fab (human, UniProt Q13261 31-95); assay: flow cytometry titration on total CD3 human T cells (FIG. 17D)
T2 construct: Anti-human CD8 Fab IFM; also called chOKT8Fab-IL15/sushi; chOKT8Fab-Il15/sushi

[2] = target: B3; assay: as above
[3] = target: T1, human CD45 receptor on the surface of …; assay: pulse incubation of human CD3 T cells, anti-human IgG staining by flow cytometry (FIG. 23)
Procedure: We evaluated the ability of IL12-TFs to support the loading of IL-12 onto T cells. Briefly, human total CD3 T cells were activated with CD3/CD28 Dynabeads for three days. Beads were removed and cells were incubated with IL-2 for 1 day prior to pulse incubation with h9.4Fab-scIL-12p70 diluted in full medium (RPMI 1640 with 10% FBS). Cells were incubated in biological duplicate with full media (Mock condition) or h9.4Fab-scIL-12p70 for 1 hr at 37° C. and then washed three times will full media (RPMI 1640 with 10% FBS) to remove unbound IL12-TF. Cells were then plated in full medium at a cell density of approximately 200,000 cells/mL and incubated at 37° C., 5% CO2. Surface tethered IL-12 was detected using flow cytometry by immunostaining with a polyclonal anti-human IgG antibody. Cells were counted using CountBright Absolute flow cytometry counting beads. In each case cells were analyzed on a FACSCelesta using Diva Software; data was analyzed using Cytobank.

T2 sequence (Q13261 31-95): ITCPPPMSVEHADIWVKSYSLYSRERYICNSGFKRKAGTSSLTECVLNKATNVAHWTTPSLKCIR

B1 gave a Kd [1] of 6.68 nM.

In the case of B2, the Kd [1] is reported as 0.44 nM.

B3: binds (chOKT8-IL15/sushi Fab).

B4: binds [2].

B5 showed a Kd [1] of 0.84 nM.

B6 gave a Kd [1] of 7.8 nM.

B7: binds [3].
